From article PMC6163455 (Biomolecules, 2018)

B1: 1746c27_N-BLA_SpyT: phylomer CPP 1746c27 fused to N-terminal β-lactamase fragment and SpyTag (protein)
chain: MASKKKKQPPKPKKPKTQEKKKKQPPKPKRASSGSHHHHHHGTGAGSGHPETLVKVKDAEDQLGARVGYIELDLNSGKILESFRPEERFPMMSTFKVLLCGAVLSRIDAGQEQLGRRIHYSQNDLVEYSPVTEKHLTDGMTVRELCSAAITMSDNTAANLLLTTIGGPKELTAFLHNMGDHVTRLDRWEPELNEAIPNDERDTTTPAAMATTLRKLLTGGGSASGGSGTGATSGAHIVMVDAYKPTKGGTGGS
modifications: left off: His6, internal (after the CPP, by the printed letters), state not stated
notes: phylomer CPP 1746c27 fused to N-terminal β-lactamase fragment and SpyTag
B2: 0084_N-BLA_SpyT: phylomer CPP 0084 fused to N-terminal β-lactamase fragment and SpyTag (protein)
chain: MASRKQKSLQTKLAENPPVPRKKRQSRPRWKQWLQKASSGSHHHHHHGTGAGSGHPETLVKVKDAEDQLGARVGYIELDLNSGKILESFRPEERFPMMSTFKVLLCGAVLSRIDAGQEQLGRRIHYSQNDLVEYSPVTEKHLTDGMTVRELCSAAITMSDNTAANLLLTTIGGPKELTAFLHNMGDHVTRLDRWEPELNEAIPNDERDTTTPAAMATTLRKLLTGGGSASGGSGTGATSGAHIVMVDAYKPTKGGTGGS
modifications: left off: His6, internal (after the CPP, by the printed letters), state not stated
notes: phylomer CPP 0084 fused to N-terminal β-lactamase fragment and SpyTag
B3: 1746_N-BLA_SpyT: phylomer CPP 1746 fused to N-terminal β-lactamase fragment and SpyTag (protein)
chain: MASPLKPKKPKTQEKKKKQPPKPKKPKTQEKKKKQPPKPKRASSGSHHHHHHGTGAGSGHPETLVKVKDAEDQLGARVGYIELDLNSGKILESFRPEERFPMMSTFKVLLCGAVLSRIDAGQEQLGRRIHYSQNDLVEYSPVTEKHLTDGMTVRELCSAAITMSDNTAANLLLTTIGGPKELTAFLHNMGDHVTRLDRWEPELNEAIPNDERDTTTPAAMATTLRKLLTGGGSASGGSGTGATSGAHIVMVDAYKPTKGGTGGS
modifications: left off: His6, internal (after the CPP, by the printed letters), state not stated
notes: phylomer CPP 1746 fused to N-terminal β-lactamase fragment and SpyTag
B4: N-BLA_SpyT: N-terminal β-lactamase fragment fused to SpyTag; No CPP negative control of split assay (protein)
chain: MGHHHHHHGATLEVLFQGPGGSQLHPETLVKVKDAEDQLGARVGYIELDLNSGKILESFRPEERFPMMSTFKVLLCGAVLSRIDAGQEQLGRRIHYSQNDLVEYSPVTEKHLTDGMTVRELCSAAITMSDNTAANLLLTTIGGPKELTAFLHNMGDHVTRLDRWEPELNEAIPNDERDTTMPAAMATTLRKLLTGGGSASGGSGTGATSGAHIVMVDAYKPTKGVDG

How the values were obtained:
CHO-K1/SpyC_C-BLA cells [1] = experiment: live-cell confocal microscopy of split β-lactamase complementation; type: cell-based, Chinese hamster; settings: for cytosolic delivery and β-lactamase complementation signal by confocal microscopy: CHO-K1/SpyC_C-BLA cells, 4 µM protein, live cell confocal microscopy, Figure 3c–f
Description: (a) Live-cell functional uptake can be measured when N-terminal β-lactamase (N-BLA), fused to a CPP sequence, penetrates the cell membrane to complement C-terminal β-lactamase protein (C-BLA) in the cytosol (step i). Expression of the split β-lactamase moieties as fusions with either SpyTag (CPP_N-BLA_SpyT) or SpyCatcher (SpyC_C-BLA) facilitates rapid formation of functional β-lactamase proteins through SpyT/SpyC ligation inside the cells (step ii). This internalization is detected after addition of dye substrate (step iii) through cleavage of cytosol-retained CCF2 (step iv), which is measured via a change in fluorescence signal from green (520 nm) to blue (450 nm). (b) Internalization of CPP_N-BLA_SpyT and β-lactamase complementation in CHO-K1/SpyC_C-BLA cells is dose-dependent, measured by CCF2 cleavage (increase in % blue viable cells as estimated by flow cytometry). […] Error bars represent standard error of the mean of two independent experiments (duplicate samples). […] Bar scale is 50 µm.
(§1) Successful complementation of β-lactamase was dose- and CPP-dependent, with a limit of detection of ≤1 µM of CPP_N-BLA_SpyT. β-Lactamase complementation and N-BLA fragment internalization was visually confirmed using live cell confocal microscopy in CHO-K1/SpyC_C-BLA cells treated with Phylomer CPP_N-BLA_SpyT proteins (Figure 3c–f). The fluorescence signal is detectable as early as 30 min (Figure S2a). Signal conversion over time was confirmed by imaging cells treated with 1746c27_N-BLA_SpyT at sequential time points (Figure S2b,c), thus completing validation of the split assay system.
Cells were seeded (CHO-K1, 37,500 cells/mL; T47D 37,500 cells/mL) onto 4-well ibiTreat chamber slides (Thermo Fisher Scientific) and incubated for 48 h at 37 °C, 5% CO2. The medium was removed and replaced with medium containing SpyC_BLA/CPP_SpyT conjugated or unconjugated SpyC_BLA proteins and cells were incubated for 2 h at 37 °C, 5% CO2. After incubation, the cells were washed to remove any SpyC_BLA protein that had not internalized, loaded with substrate CCF2-AM (2 µM final concentration in media containing 1% FCS), and incubated for 1 h at room temperature. Live cells were visualized through confocal microscopy. Images were collected using a Nikon C2 Confocal Microscope through a 40× differential interference contrast (DIC) objective after excitation by a 408 nm laser. Bar scales in images represent 50 µm or 14.6 µm (zoom magnification 3.4×).
Figure S2. Split β-lactamase assay time course.
Live cell confocal microscopy imaging the CPP-mediated cytosolic internalization of 1746c27_N-BLA_SpyT (8 µM) in CHO-K1/C-BLA cells at (a) 30 min, (b) 60 min, and (c) 120 min after addition of CCF2-AM dye. The β-lactamase complementation signal is detectable as early as 30 min and continues to convert over time. Repeated excitation over time results in photobleaching of the converted fluorescence resonance energy transfer (FRET) substrate. Bar scale is 50 µm. […]
(also on this page, place not known: De ad ( B) ( D) ( E) 1746c27_N-BLA_SpyT + CHO-K1/SpyC_C-BLA) […]

CHO-K1/SpyC_C-BLA cells [2] = experiment: split β-lactamase cytosolic delivery assay (CCF2-AM, flow cytometry); type: cell-based, Chinese hamster; settings: CHO-K1/SpyC_C-BLA stable cells, blue fluorescent cells after 1 h, two independent experiments, duplicate samples, Figure 3b
Description: SpyT/SpyC ligation enables specific covalent linkage of the split components when mixed together, thus reactivating β-lactamase activity. SpyC_C-BLA was selected for mammalian expression in stable cell lines, and N-BLA_SpyT was selected for CPP incorporation onto its N-terminus (CPP_N-BLA_SpyT). Constitutively expressed SpyC_C-BLA in the cytoplasm of stable cell lines can be complemented by CPP-delivered N-BLA_SpyT, thus forming functional β-lactamase.
In brief, CPP sequences are made as fusions to N-BLA_SpyT (CPP_N-BLA_SpyT, Figure 3a, step i). […] Cell penetrating peptide-dependent β-lactamase complementation and activity is detected by cleavage of the CCF2 substrate (Figure 3a, step iv). As in the full-length β-lactamase internalization assay, this reaction is measured as a shift in fluorescent signal from green to blue. […]
as §1, with “Signal conversion over time was confirmed by imaging cells treated with 1746c27_N-BLA_SpyT at sequential time points (Figure S2b,c), thus completing validation of the split assay system.” left out

Molecule	earliest time at which β-lactamase complementation signal is detectable (CHO-K1/SpyC_C-BLA cells [1]; 8 µM in CHO-K1/C-BLA cells, time after addition of CCF2-AM dye, imaged at 30, 60, 120 min, Figure S2) [min]	cytosolic delivery and β-lactamase complementation signal by confocal microscopy (CHO-K1/SpyC_C-BLA cells [1])	β-lactamase complementation signal (% blue viable cells) (CHO-K1/SpyC_C-BLA cells [2])
B1	30	cytosolic delivery	–
B2	–	cytosolic delivery	–
B3	–	cytosolic delivery	–
B4	–	minimal evidence of internalization	negligible effect
